The target in this assay is T1, RBD-Fc (RBD-SD1 part of SARS-CoV2-S1, amino acids 319-591, fused to the constant region of rabbit IgG1 heavy … (SARS-CoV-2 (reference sequence, …, UniProt P0DTC2))).
T1 construct: source: HEK293T, cell culture supernatant, immobilized onto plates via anti-rabbit IgG
In words: ELISA. To be noted: partners not purified. (In general: ELISA stands for enzyme-linked immunosorbent assay.)

B1: HK CV07-202 (antibody, V domains shown)
VH: EVQLVESGGGLIQPGGSLRLSCAASGFTVSSNYMSWVRQAPGKGLEWISVIYSGGSTFYADSVKGRFTISRDNSKNTLYLQMNSLRAEDTAVYYCARDLYYYGMDVWGQGTTVTVSS
VL: DIQLTQSPSFLSASVGDRVTITCRASQGISSYLAWYQQKPGKAPKLLIYAASTLQSGVPSRFSGSGSGTEFTLTISSLQPEDFATYYCQQLNNYSVTFGGGTKVEIK
As for B1, the binding result is on record as “binds”.

These data come from PMC7510528 (Cell, 2020).
